Measured values as given in EP4782465A1.

Legend:
[1] = biological target: Insulin receptor of C2C12 mouse myoblasts (mouse) (UniProt P15208); experiment: cell-based or functional assay
[2] = biological target: Human insulin receptor subtype B (human) (UniProt P06213); experiment: cell-based or functional assay

Chain of Insulin receptor of C2C12 mouse myoblasts (mouse) (P15208 28-1372): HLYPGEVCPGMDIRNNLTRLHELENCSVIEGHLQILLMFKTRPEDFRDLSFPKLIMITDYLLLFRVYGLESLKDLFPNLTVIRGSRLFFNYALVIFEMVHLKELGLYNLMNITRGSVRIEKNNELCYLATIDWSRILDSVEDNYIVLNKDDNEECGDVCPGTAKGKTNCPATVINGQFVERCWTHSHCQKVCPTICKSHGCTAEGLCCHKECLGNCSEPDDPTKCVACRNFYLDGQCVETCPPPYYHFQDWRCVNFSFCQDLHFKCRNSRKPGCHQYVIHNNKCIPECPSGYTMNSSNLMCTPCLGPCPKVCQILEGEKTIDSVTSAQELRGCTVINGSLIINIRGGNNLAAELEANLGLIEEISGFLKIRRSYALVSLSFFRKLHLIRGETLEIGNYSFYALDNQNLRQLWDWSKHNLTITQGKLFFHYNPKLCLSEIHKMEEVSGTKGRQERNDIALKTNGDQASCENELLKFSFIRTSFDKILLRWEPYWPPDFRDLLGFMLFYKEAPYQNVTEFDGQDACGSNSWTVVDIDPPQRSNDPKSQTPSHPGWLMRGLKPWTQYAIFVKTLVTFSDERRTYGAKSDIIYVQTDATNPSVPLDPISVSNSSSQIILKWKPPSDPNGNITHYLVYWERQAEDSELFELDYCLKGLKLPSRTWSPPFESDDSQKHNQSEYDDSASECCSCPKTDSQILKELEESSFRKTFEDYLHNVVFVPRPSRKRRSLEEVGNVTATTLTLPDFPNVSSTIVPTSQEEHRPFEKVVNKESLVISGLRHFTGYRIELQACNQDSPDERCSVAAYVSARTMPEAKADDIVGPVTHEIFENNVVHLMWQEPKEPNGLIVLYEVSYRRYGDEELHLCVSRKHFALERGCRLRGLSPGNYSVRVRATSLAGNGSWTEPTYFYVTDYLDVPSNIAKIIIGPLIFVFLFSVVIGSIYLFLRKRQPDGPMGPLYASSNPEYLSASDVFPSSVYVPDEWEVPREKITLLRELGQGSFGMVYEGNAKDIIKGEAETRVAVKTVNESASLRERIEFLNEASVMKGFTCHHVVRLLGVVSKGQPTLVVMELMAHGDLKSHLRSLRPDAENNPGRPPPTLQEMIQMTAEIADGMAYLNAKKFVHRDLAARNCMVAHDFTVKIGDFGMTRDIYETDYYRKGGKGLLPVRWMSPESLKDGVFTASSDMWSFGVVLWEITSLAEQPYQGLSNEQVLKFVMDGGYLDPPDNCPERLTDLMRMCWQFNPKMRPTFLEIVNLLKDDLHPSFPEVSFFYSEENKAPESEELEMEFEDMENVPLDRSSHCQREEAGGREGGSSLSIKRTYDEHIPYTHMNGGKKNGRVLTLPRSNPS

AKT phosphorylation activity (EC50) [1]: 194 nM | Human insulin receptor subtype B activity (EC50) [2]: 116 nM
Substance: LY3209590 (Fc fusion)
